Data taken from US20250066456A1 (NOVAVAX, published 2025).

Tests used:
[1] = molecular target: T1, BV2562 (recombinant CoV S glycoprotein, BA.4.6) (SARS-CoV-2, UniProt P0DTC2 14-1273); experiment: BLI, antibody on anti-mouse Fc biosensor, rS analyte
[2] = molecular target: BV2465 (recombinant CoV S glycoprotein, Delta) (SARS-CoV-2, UniProt P0DTC2 14-1273); experiment: as above
[3] = molecular target: T2, BV2542 (recombinant CoV S glycoprotein, BA.2.12.1) (SARS-CoV-2, UniProt P0DTC2 14-1273); experiment: as above
[4] = molecular target: BV2373 (recombinant CoV S glycoprotein, Prototype) (SARS-CoV-2, UniProt P0DTC2 14-1273); experiment: as above
[5] = molecular target: T3, BV2509 (recombinant CoV S glycoprotein, BA.1) (SARS-CoV-2, UniProt P0DTC2 14-1273); experiment: as above
[6] = molecular target: BV2438 (recombinant CoV S glycoprotein, Beta) (SARS-CoV-2, UniProt P0DTC2 14-1273); experiment: as above
[7] = molecular target: BV2425 (recombinant CoV S glycoprotein, Alpha) (SARS-CoV-2, UniProt P0DTC2 14-1273); experiment: as above
[8] = molecular target: T4, BV2541 (recombinant CoV S glycoprotein, BA.4) (SARS-CoV-2, UniProt P0DTC2 14-1273); experiment: as above
[9] = molecular target: BV2443 (recombinant CoV S glycoprotein, Gamma) (SARS-CoV-2, UniProt P0DTC2 14-1273); experiment: as above
[10] = molecular target: T5, BV2523 (recombinant CoV S glycoprotein, BA.2) (SARS-CoV-2, UniProt P0DTC2 14-1273); experiment: as above
[11] = molecular target: T6, BV2540 (recombinant CoV S glycoprotein, BA.5) (SARS-CoV-2, UniProt P0DTC2 14-1273); experiment: as above
[12] = molecular target: T7, BV2561 (recombinant CoV S glycoprotein, BA.2.75) (SARS-CoV-2, UniProt P0DTC2 14-1273); experiment: as above
[13] = molecular target: T8, RBD of a CoV S glycoprotein related to a CoV S glycoprotein from the SARS-CoV-2 omicron strain (SARS-CoV-2 omicron strain); experiment: BLI, RBD-His on Ni-NTA biosensor, antibody analyte
T8 construct: domain: RBD

[14] = molecular target: T2, BV2542 (recombinant CoV S glycoprotein, …); experiment: ELISA on coated rS
[15] = molecular target: T5, BV2523 (recombinant CoV S glycoprotein, …); experiment: ELISA on coated rS
[16] = molecular target: T6, BV2540 (recombinant CoV S glycoprotein, …); experiment: ELISA on coated rS
[17] = molecular target: T1, BV2562 (recombinant CoV S glycoprotein, …); experiment: hACE2 receptor inhibition ELISA on coated rS; competitor hACE2-His
[18] = molecular target: T2, BV2542 (recombinant CoV S glycoprotein, …); experiment: as above
[19] = molecular target: BV2589 (recombinant CoV S glycoprotein, BQ.1.1) (SARS-CoV-2, UniProt P0DTC2 14-1273); experiment: as above
[20] = molecular target: T3, BV2509 (recombinant CoV S glycoprotein, …); experiment: as above
[21] = molecular target: T4, BV2541 (recombinant CoV S glycoprotein, …); experiment: as above
[22] = molecular target: T5, BV2523 (recombinant CoV S glycoprotein, …); experiment: as above
[23] = molecular target: T6, BV2540 (recombinant CoV S glycoprotein, …); experiment: as above
[24] = molecular target: T7, BV2561 (recombinant CoV S glycoprotein, …); experiment: as above

B1: 425.6 (antibody, V domains shown)
VH: VQLKQSGPSLVQPSQSLSITCTVSGFSLTSYGIHWVRQSPGKGLEWLGVIWRGGSTDYNAAFMSRLTITKDNSKSQVFFKMNSLQADDTAIYYCATHTEGDDVDYWGQGTSVTVSS
VL: QIVLTQSPAIMSVSPGEKVTMTCSASSTMSFMYWYQQKPGSSPRLLIYDTSNLASGVPVRFSGSGSGTSYSLTISRVEAEDAATYYCQQWNTYPLTFGAGTKLELKR
In the case of B1, the Kd [1] is reported as under 1 pM, the Kd [2] is reported as under 1 pM and the Kd [3] is reported as 3.81 pM. For the same binder, the koff [3] was 1.51e-07 s⁻¹, the kon [3] was 40200 M⁻¹ s⁻¹ and the Kd [4] was under 1 pM. It also gave a Kd [5] of 3.91 pM, a koff [5] of 1.54e-07 s⁻¹ and a kon [5] of 41300 M⁻¹ s⁻¹. It also gave a Kd [6] of under 1 pM, a Kd [7] of under 1 pM and a Kd [8] of under 1 pM. The Kd [9] was under 1 pM, the Kd [10] was 3.69 pM and the koff [10] was 1.37e-07 s⁻¹. The kon [10] was 38200 M⁻¹ s⁻¹, the Kd [11] was 1.76 pM and the koff [11] was 1.5e-07 s⁻¹. It also gave a kon [11] of 85900 M⁻¹ s⁻¹, a Kd [12] of under 1 pM and a koff [12] of under 1e-07 s⁻¹. It also gave a kon [12] of 46900 M⁻¹ s⁻¹, a Kd [13] of 4890 pM and a koff [13] of 0.00123 s⁻¹. For the same binder, the kon [13] was 272000 M⁻¹ s⁻¹, the EC50 [14] was 0.034 µg/mL and the EC50 [15] was 0.028 µg/mL. It also gave an EC50 [16] of 0.014 µg/mL, an IC50 [17] of 0.071 µg/mL and an IC50 [18] of 0.028 µg/mL. The IC50 [19] was over 3 µg/mL, the IC50 [20] was over 3 µg/mL and the IC50 [21] was 0.037 µg/mL. It also gave an IC50 [22] of 0.032 µg/mL, an IC50 [23] of 0.028 µg/mL and an IC50 [24] of over 5 µg/mL.

B2: 35.13 (antibody, V domains shown)
VH: QVQLQQSGAELGKPGASVKLSCRASGYTFTRYYIYWVKQRPGQGLEWIGEINPSNGDTHFNEKFKTKATLTVDKSSSSAHIHLTSLTSEDSAVYYCSIHAYSFDFWGQGTTLTVSS
VL: EIQMTQSPSSMSASLGDRITITCQATQDIVKNLNWYQQKPGKPPSFLIYHATELAKGVPSRFSGSGSGSDYSLTISNLESEDFADYYCLQFYDFPFTFGAGTKLELKR
Binder B2 has a Kd [1] of under 1 pM, a koff [1] of under 1e-07 s⁻¹ and a kon [1] of 38500 M⁻¹ s⁻¹. For the same binder, the Kd [2] was 3.73 pM, the koff [2] was 1.42e-07 s⁻¹ and the kon [2] was 41900 M⁻¹ s⁻¹. The Kd [3] was 7.87 pM, the koff [3] was 1.14e-07 s⁻¹ and the kon [3] was 15000 M⁻¹ s⁻¹. For the same binder, the Kd [4] was 5.29 pM, the koff [4] was 1.67e-07 s⁻¹ and the kon [4] was 33000 M⁻¹ s⁻¹. The Kd [5] was 9.82 pM, the koff [5] was 1.52e-07 s⁻¹ and the kon [5] was 15500 M⁻¹ s⁻¹. For the same binder, the Kd [6] was 15.2 pM, the koff [6] was 1.54e-07 s⁻¹ and the kon [6] was 10500 M⁻¹ s⁻¹. It also gave a Kd [7] of 3.22 pM, a Kd [8] of under 1 pM and a koff [8] of under 1e-07 s⁻¹. It also gave a kon [8] of 22700 M⁻¹ s⁻¹, a Kd [9] of 19.8 pM and a koff [9] of 1.7e-07 s⁻¹. The kon [9] was 9090 M⁻¹ s⁻¹, the Kd [10] was 8.43 pM and the koff [10] was 1.61e-07 s⁻¹. It also gave a kon [10] of 19100 M⁻¹ s⁻¹, a Kd [11] of 7.23 pM and a koff [11] of 1.21e-07 s⁻¹. The kon [11] was 17600 M⁻¹ s⁻¹, the Kd [12] was 6.87 pM and the Kd [13] was 1.93 pM. For the same binder, the kon [13] was 142000 M⁻¹ s⁻¹, the EC50 [14] was 0.104 µg/mL and the EC50 [15] was 0.053 µg/mL. It also gave an EC50 [16] of 1.03 µg/mL, an IC50 [17] of over 5 µg/mL and an IC50 [18] of 0.177 µg/mL. For the same binder, the IC50 [19] was over 3 µg/mL, the IC50 [20] was 0.097 µg/mL and the IC50 [21] was over 5 µg/mL. It also gave an IC50 [22] of 0.126 µg/mL, an IC50 [23] of over 3 µg/mL and an IC50 [24] of 0.169 µg/mL.

B3: 322.3 (antibody, V domains shown)
VH: RVQLQQSGPELVKPGASVTISCKASGYIFTSDYIHWVKQRPGQGPEWIGWIYPGNINTKYNEKFKGKATLTADKSSSTAYMQLSSLTSEDSAVYFCARDDGNLYYYAMDYWGQGTSVTVSS
VL: NIVLTQSPASLAVSLGQRATISCRASESVDSYGSSFMHWYQQKPGQPPKLLIYLASNLESGVPARFSGSGSRTDFTLTIDPVEADDAATYYCQQNNEDPRTFGGGTKLEIK
For B3, the Kd [1] was under 1 pM, the Kd [2] was 78.7 pM and the Kd [3] was 41.5 pM. It also gave a koff [3] of 1.22e-07 s⁻¹, a kon [3] of 2690 M⁻¹ s⁻¹ and a Kd [4] of 57.1 pM. The Kd [5] was 87.4 pM, the Kd [6] was 6.48 pM and the koff [6] was 1.24e-07 s⁻¹. The kon [6] was 20100 M⁻¹ s⁻¹, the Kd [7] was 78.7 pM and the Kd [8] was under 1 pM. The Kd [9] was 107 pM, the koff [9] was 1.26e-07 s⁻¹ and the kon [9] was 1180 M⁻¹ s⁻¹. It also gave a Kd [10] of 40.5 pM, a Kd [11] of 13.2 pM and a koff [11] of 1.46e-07 s⁻¹. It also gave a kon [11] of 11100 M⁻¹ s⁻¹, a Kd [12] of 4.47 pM and a Kd [13] of 1.69 pM. The kon [13] was 138000 M⁻¹ s⁻¹, the EC50 [14] was 0.225 µg/mL and the EC50 [15] was 0.195 µg/mL. It also gave an EC50 [16] of 0.045 µg/mL, an IC50 [17] of 0.411 µg/mL and an IC50 [18] of 0.866 µg/mL. For the same binder, the IC50 [19] was 0.265 µg/mL, the IC50 [20] was 0.493 µg/mL and the IC50 [21] was 0.543 µg/mL. For the same binder, the IC50 [22] was 0.224 µg/mL, the IC50 [23] was 0.779 µg/mL and the IC50 [24] was over 5 µg/mL.
